Experimental data: a protein production outcome set (Wang et al. 2014)

Assay: label from the status in PepcDB records

Sequence | protein production
MRASKASADESLNVFPVPADSPGSPIAGANGVPKEISLPGEARPFHLANSAFWPYVLLFVSSLTLSGCAGMVDMVRDVTRSLADIDVSGITDLFGSGEVQMSPEQIAQLEVIPSTRPGWEASVEESPAAVFLPVFGDGAVYAGGPDGRLVRFDPASGKASGVIDTKHPLAGGIGTGDGMLLVGTFKGEVLAFDEKSGKPKWTANLSTEVLSPPHAGMGVVVVRTGDGRIYGLDSESGKRKWVYQGATPSLTVRSFAGALIADDRVYAGFAGGRLVALNLSNGSLVWEAMVSRPRGATELERISDVTSLPVLDEQQVCAVAYQGRIACFDITAGNQIWTRDVSSNAGLAMDDNYVYVSENRGGIVAYDKRDGTSIWAQDLLNGLKLSAPLVHGARIVVGDSQGYVNFIRKDNGAIIARSGTDESAITARPISLPNGIAVQTRKGGVFAFGA | failed
MEGQENKVLFGLENVHYATYSETDGVITYDTPKPLPGGVEISVEPQGDMIKFYADNIVYYQAPNNQGYEGTLTIASIPEGFATDCLGEELDTVDGVLTEKSDAKPKPFALLFEFDGDVKSVRQVLYNCTASRPTVASSTLEHHHHHH | not failed
MRTSNPMLKKEAFRKEGASASAMTIGGTVGKTFIMLILLLATSVYSYIQMMQGTMKMPVLIGALIVAAIIAFASMFFPRISPFGAPIYAAVEGVVLGSISAVYTMKFGDSIVLNAVLLTISILFAMLVLYATRVVKVTDKFRTGVMAATLGIMVMYLVVFLLNMFGVTVPYIHQGGTIGIIISAVVIVVAALNLLLDFDLIENGVRSQAPKYMEWYTAMGLMLTLVWLYLEILRFVSYFTKND | not failed
MDFHTDTIILLAGLLFIVGVITAKFSTRLGVPALVLFILVGMLVGSDGLGLIHFDFSQAHFAQLIGIFALVIILFEGGLQTKWKTVQSVAVPSLSLATFGVLITSTLVAVAAKYVLGVSWLEAYLFGAIVGSTDAAAVFAVLKEQNIKDRLATTLEAESGTNDPMAVFLTLSLIELITIGSMNPLHLFGSFLWQMGAGLILGFGLGKLGSYSINKINLDSSGLYPVFALAFALLTYSVTAMIGASGLLAVYVAALVIGNQDLTYRHSIFRFNEGFAWMMQMLMFIILGLLVFPNQLFEASIFIKGILLSLILMLVARPVAVFLTTIKMRFDWKEKLFLSWAGLRGAVPIVLATFPMTAGLENSPLFFNVVFFVVLTSALIQGSTIAHFANKLQLTGPQKTTPLHSLELVSIGKANAEIVELEMKQDTPVIGKTLEEINLPKDVLVNAIIRDEQLITPYGKTTIQADDILYVLVSKKKKRQLKELFQAKES | failed
MFFVNRRLIKRVFLGFAVIALLLPLVLKQSFEITAEVIVQSKKLSQTDANTVLAPDSDKFIPPSLADMETESNILRSPTLIRDTIDQLRREGQFGGSEGLLTRLIVKPIRNGLIDPLRNHVINPVRGFFGLAVDPVRDTSLDAFTDQAVKDLKIGTLPGSNVISIVYASPNAAEGTRFVERLLANYLKNRQDLQSNELPEAFYEQKKAQYQSRLDDLEGKRQALLEAAHASDPKEEITFRLNAINTEEQSLNGYRDQALENQRRLDYLQKNLAAARKAGLTDYTFPFAFANTVDNVAYEDREIKQLGEQLTNLVSQYGTTADTYRADSVPMQQQREQIVRARAQFLKVVENRVRERSSDLQITQSVIAQKTARINDYKARVRDLQEVLSKLRQLDTEIDALHKAFFTYTQRYEESRGERLISGELSNARVLSQPYEPSEAAFPKPMLIIPLGLLTGLLLAIALGYVYEFFDHRFKHPAQVSDHLGLPVLMVLNAVEQPQVNPYPRWTWRWAWHWAKQ | failed
MEFTAEQLSQYNGTDESKPIYVAIKGRVFDVTTGKSFYGSGGDYSMFAGKDASRALGKMSKNEEDVSPSLEGLTEKEINTLNDWETKFEAKYPVVGRVVS | not failed
MILQDARIDVPYTVVSINLPEDSVRHLSNLGLKVGSRLELISKTKSSAIVMLKSSRLAFDDSILSKIDVSESQETVETLPLSELEVGQFAYIDNIFAVNEAKRRLMDMGLTRHTKIYLRKVAPLGDPIEISLRGYELTLRKSEAQMISVVKIDNQEEKLEHHHHHH | not failed
MILCYGDNNIMMDIYKEIKEEMKKVYLSRDCCFVGYSGGKDSSAMLTLLWDAIAELPLEERTNPIHILTSEVGVETPAMTAYISRTLQKIQEKANEQNLPFVVHGVKPLMKESYWYKVIGRGVLPPSGNSRLRWCTDSLKVKPMQRKMKEILIASQTTTAVECFDEYDGVLMLAVRNEESARRRHSIQKHEISNDSLFSRHNDMKNILCFNPVKFLTGDEVWMLLLDRGI | failed
MAVRVCCHAPPGVSNHLFTFCAGNLTTGFSGGSVTSQKGGAAGLPTCSRRCPRGCLPGSDPLPRHPRRYAPPVTPPVTPPTTPAPRSRARMLELVFPKDTNYHGTAFGGWVLALMDKAASVAAVRHAGGNVVTARMDGVDFHVPIRVGDAVALDARVIRVGRSSMTIRVDVYRENMASGEQQLATGGLFTFVALGEDGKPRPVPPLPEGSTDSEQPDYEARP | failed
MKTGDKQFAVIGLGRFGLAVCKELQDSGSQVLAVDINEDRVKEAAGFVSQAIVANCTHEETVAELKLDDYDMVMIAIGADVNASILATLIAKEAGVKSVWVKANDRFQARVLQKIGADHIIMPERDMGIRVARKMLDKRVLEFHPLGSGLAMTEFVVGSRLMGKTLSDLALCKVEGVQVLGFKRGPEIIKAPDMSTTLEIGDLIIVVGPQDKLANKLKSLLEHHHHHH | failed
MAKGGFPGFGGNINNLVKQAQKMQRDMERVQEELKEKTVEASAGGGAVTVVATGRKDIKEITIKPEVVDPDDVEMLQDLILAAVNEALRKADEMVTAEISKITGGLGGIPGLF | not failed
MKTTFLSLCFLLFFPLTGYSWQTAVTHISFHDLQRHRQLDSIIYYPTADQGETQLLSDTAVFRGISVLPNAPLAEGKFPLVVLSHGSGGNNTSLAWLADKLVQQGMVVVAANHPGSTTGDSIPAQSAQLWLQTEDISFIISTLLSDPRWKSALDEQAIGVIGHSKGGYSAIATLGATLSRPHFIASCQQQPEQPNCQFYTHAGVTLDQLSAEKFEGNYADKRLRFAIALDPGMVPFYQKSSLLHLSAPLLLINADYFISPNESLNLGGATWVKQLNQPGITAVTLTKSGHFDFLPLCKPAAGAILAEEGEAFICATPAVEREKLHQQTVQQILTYLQ | failed
MSLAHERSSGIYLVAASAVLWSTAGLFVRMADMDMWSMVAWRSAFTFLALGAFFLLRNRFARQRSSMSFGFPGIAGCLVSAIAAITYIASLRWTTVANVMTIYATLPFIVAGIAFVCLRDRVTYRFVIAGCLAFVGVLISVGAAVSHQDMLGIFAAFIMTTGCATQIVIAKRFPDMDTTLMTALAALICICVALPLMQFEIPAPTQIIACALYGVLTTAFGYIFLLQGSRRINAGEAGLISMLDVILGPVWVWLFYNEVISPIVLTGGGIVIMSVAWYLAGDRRAATAP | failed
MRVHASSPDNKLQVFAIAGTKAILLAMNMDDSLLQGFHGFAFRRRVANGQWEWLTGLKVFVDVFPEGGPVIKKGKVGRFPTNEHPIQSFLWSDYRASPGTKYEFEISAMFGPIAKLEAYYAATLAITTEQEDDGKHGIWFNLGAIASQAFAEKFGNKPLSDADYNDPDNEEVAFLSRGLLEACIEFIRETPAGDALRIVAYEFTFKRILLELKAALERGVDVRIVYHATTANEKAIADAKLPENSKGVQILFKRTRPQTPHNKFIVRLKKGKTPVSVWTGSTNFTPSGFLGQTNVGHKVTDGDIAKIYLQLWEGLKADPDDFDATQAAMALTPNPANVVGTGTTLVFSPRPSPKMLDWYGHRAADAVNAVMFTAAFKVDERILSALADTDTSMRFILLEQPPSAEVQAARRANPADLELSYGAILGKTKMLTEERTGRDATGKKVTKIVPIPNFKIEKWFLKEELERQSGDGFVFYVHTKFLLVDPFSDDPLVCTGSANFSGASLTSNDENMLLIRGDTRVADIYLTEYDRVFRHFYSRDVINDIAKKGGPVNVGKLDPTDKWWQPYYDAKLAKSHKRRMFFEDPKKHWIESATQDGNVFAKEKPLKKPQ | failed
NNTPIGTLRIGCSSTMAQNVLARITAKMLKEYPGLSVNLVTGIPAPDLIADGLDVVIRVGALQDSSLFSRRLGSMPMVLCAAKSYLAQAGNPEKPADLAGHAWLEYSVRPDNEFVIIAPEGISTRLTPQGRFVTNDPMTL | failed
MKALNKIRYAFLVCTLMVLVTLAGCNSADRSAEPPQSSHQGSEQEGAKKTPLNVEVFNLGERSMFAVSSVLVTGTADAILIDTQFSAADARQLVDKIKASGKRLKAIYISHGDPDYYFGLDSVHAAFPEAKVFATPQTIAHIQATKDAKLKLWAPQLGQDAPKQILIPEPMQGDQLVLEGQELRIIGMDGPTPDRTFVWIPSSRTVAGGISVMGAQHVWMADTQTPQSHMEWLAVLDRIKSMDPKVVVPGHFLPGASLDVRSVTFTADYIRAFDEETVKAKDSAALIAAMKQRYPGLGGEGSLELSAKVAKGEMEWK | failed
MHSEHGRQNVKVELKGVHRVRRKLASGETAVYHYAWRGGPRIDAAPGSAEFVAAYNAAHAARDRPVHHDGTLQALITAYQKTPAFTDLAEATRKGYIRHIRQIEADFGDMPVQALADPRVRGEFLDWRDRLAQKSKRSADYAFSVLARILSWAHDRRKIPVNPCEKPGRLYTGSRADSIWTEAQIAAFLAVAPRPVRLPFLLAIWTGQRQADILQLTWTAYDGQAIRLRQSKTGRHMLIPVAQPLREAMEEAKARRRTLTICETSRGQPWTSDGFKTSFGKAQASAGIEGVTFHDLRGTAVTFLALAGCSVPEIAALTGHSLKDAEGILSKHYLGRDRRLGESAVAKLEKHGVGTPTVKRAVKRRGPEGGDSV | failed
MLSKRDAILKAAVEVFGKKGYDRATTDEIAEKAGVAKGLIFHYFKNKEELYYQAYMSVTEKLQKEFENFLMKNRNRDIFDFMERWIEKKLEYSASHPEEADFLITLVSVDEGLRKRILLDLEKSQRVFFDFVREKLKDLDLAEDVTEEIALKFLMWFFSGFEEVYLRTYQGKPELLKRDMNTLVEEVKVMLRILKKGMTK | not failed
MAGGAVSKGNVIVGLFRKRTSLLITSILLGLIGLPSLGVLDIGNLARAEKAATNAPSPTTPDIKPSELKPAYPASAPPPRVDPLPDERDMQERVVEIDYRVSNLLGDFAGNLWVGSWRGLSRIDPKTGKILARVSLPNVAIGALAQDKVGRLWVGTYEGLKRVEPRTNEISAQNLFLPSKRVLSLLTDKRGYLWVGTDNGLALVSPDQGLIMTTVKNLPGVSGNTLTLDADGQLWTGTLDGVVRINTASALIMKRINDLPGTTVQALAISPEGLIWAGMPNNLLVINPKTGVVLRSVTRLRGRNVTAVRFAKDGSVWVGTHNGLLRLNPNTGAVLDEVAGLPSSRVLSLMPDVANKLWIGTSEGLAWLMPKMDKAKPHLAFSRLVK | failed
MSPIVSVPDITAPVENVPAILPKVVPGELIVNKPTGGDSDELFQYLVDILASPVYDVAIESPLELAEKLSDRLGVNFYIKREDKQRVFSFKLRGAYNMMSNLSREELDKGVITASAGNHAQGVALAGQRLNCVAKIVMPTTTPQIKIDAVRALGGDVVLYGKTFDEAQTHALELSEKDGLKYIPPFDDPGVIKGQGTIGTEINRQLKDIHAVFIPVGGGGLIAGVATFFKQIAPNTKIIGVEPYGAASMTLSLHEGHRVKLSNVDTFADGVAVALVGEYTFAKCQELIDGMVLVANDGISAAIKDVYDEGRNILETSGAVAIAGAAAYCEFYKIKNENIVAIASGANMDFSKLHKVTELAGLGSGK | not failed
MNGDSKPYPLIVQQVMLFTTHPAHGVKAGMAKALHMIHAGRKVLVFIALLVSASLAMADVAIPPLKARVTDLTGTLSANEATQLEQKLAAFEARKGSQIAVLIVSTTQPETIEQYSIRVVDAWKLGRKGIDDGVLLLVAKQDRTVRVEVGYGLEGVLPDAVAKRITDEIIVPEFRQGRFAAGINAGVDRIIGVIEGEPLPPPPARSARGGDSSAAADILVNNIIFVFILLFIAAKVFQSIFGRFLGATLLSTAAAIIVWLVFASIFLALIAAAFAFFISLFGHAGSGIYRGGRGWPGGFGGYGGWGGRGGPGGFGGGGGFGGGGGGFGGGGASGRW | failed
